Measurements from US20260085338.

Target: T7 RNA polymerase, P00573
Sequence (P00573 whole entry): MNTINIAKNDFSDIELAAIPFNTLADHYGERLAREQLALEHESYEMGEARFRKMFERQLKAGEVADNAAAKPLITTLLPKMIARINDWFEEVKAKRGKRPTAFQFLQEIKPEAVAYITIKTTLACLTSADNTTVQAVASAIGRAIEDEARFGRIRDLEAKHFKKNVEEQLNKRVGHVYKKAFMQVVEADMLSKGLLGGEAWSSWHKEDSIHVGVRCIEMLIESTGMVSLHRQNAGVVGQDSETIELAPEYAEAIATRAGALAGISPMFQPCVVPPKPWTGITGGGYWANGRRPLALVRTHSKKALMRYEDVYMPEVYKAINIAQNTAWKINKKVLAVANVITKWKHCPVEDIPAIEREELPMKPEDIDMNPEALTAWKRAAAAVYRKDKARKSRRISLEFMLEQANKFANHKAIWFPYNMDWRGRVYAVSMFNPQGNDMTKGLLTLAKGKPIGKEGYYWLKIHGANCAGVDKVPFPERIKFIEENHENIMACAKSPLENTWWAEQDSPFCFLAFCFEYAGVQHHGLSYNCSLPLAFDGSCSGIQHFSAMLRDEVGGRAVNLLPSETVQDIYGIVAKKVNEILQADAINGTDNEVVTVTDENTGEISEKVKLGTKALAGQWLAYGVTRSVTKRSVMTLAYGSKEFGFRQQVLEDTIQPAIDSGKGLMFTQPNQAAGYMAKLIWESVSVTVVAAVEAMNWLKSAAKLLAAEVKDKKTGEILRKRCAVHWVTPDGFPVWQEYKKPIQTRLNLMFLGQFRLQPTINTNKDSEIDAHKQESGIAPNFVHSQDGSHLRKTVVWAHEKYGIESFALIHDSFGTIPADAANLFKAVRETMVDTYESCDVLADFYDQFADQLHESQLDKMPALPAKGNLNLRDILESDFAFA

B1: T7 lysozyme (protein)
chain: MARVQFKQRESTDAIFVHCSATKPSQNVGVREIRQWHKEQGWLDVGYHFIIKRDGTVEAGRDEMAVGSHAKGYNHNSIGVCLVGGIDDKGKFDANFTPAQMQSLRSLLVTLLAKYEGAVLRAHHEVAPKACPSFDLKRWWEKNELVTSDRG
  reduction of msfGFP output upon lysozyme induction (P. putida, 4 mM Rha): T7 (-79%)
